# In paper PMC3964918 (RNA, 2014):
# Where two headings read alike, the source gives them in different places.
# T1: SynPnp, recombinant Synechocystis PNPase (Synechocystis PCC6803, UniProt P72659 1-718)
# T1 sequence (looked up): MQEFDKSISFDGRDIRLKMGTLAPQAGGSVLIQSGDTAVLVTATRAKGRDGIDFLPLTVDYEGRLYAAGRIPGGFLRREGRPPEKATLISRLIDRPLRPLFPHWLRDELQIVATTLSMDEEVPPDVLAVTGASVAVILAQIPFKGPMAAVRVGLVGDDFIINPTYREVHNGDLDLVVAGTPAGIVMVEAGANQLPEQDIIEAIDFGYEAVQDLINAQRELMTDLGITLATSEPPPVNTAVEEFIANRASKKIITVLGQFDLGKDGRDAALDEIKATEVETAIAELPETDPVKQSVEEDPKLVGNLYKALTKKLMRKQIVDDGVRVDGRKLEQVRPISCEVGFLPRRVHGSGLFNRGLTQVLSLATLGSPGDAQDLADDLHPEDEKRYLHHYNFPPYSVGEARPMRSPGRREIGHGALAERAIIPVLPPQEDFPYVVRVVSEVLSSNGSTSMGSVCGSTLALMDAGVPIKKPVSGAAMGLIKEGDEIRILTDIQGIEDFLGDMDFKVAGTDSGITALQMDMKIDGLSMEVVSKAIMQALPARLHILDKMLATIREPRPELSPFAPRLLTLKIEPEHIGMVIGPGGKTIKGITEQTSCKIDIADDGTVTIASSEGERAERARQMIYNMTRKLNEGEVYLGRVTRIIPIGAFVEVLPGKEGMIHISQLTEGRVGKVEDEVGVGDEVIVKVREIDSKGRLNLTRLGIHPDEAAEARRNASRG
# T2: AnaPnp, recombinant Anabaena PNPase (Anabaena PCC7120, UniProt Q8YP11 1-718)
# T2 sequence (looked up): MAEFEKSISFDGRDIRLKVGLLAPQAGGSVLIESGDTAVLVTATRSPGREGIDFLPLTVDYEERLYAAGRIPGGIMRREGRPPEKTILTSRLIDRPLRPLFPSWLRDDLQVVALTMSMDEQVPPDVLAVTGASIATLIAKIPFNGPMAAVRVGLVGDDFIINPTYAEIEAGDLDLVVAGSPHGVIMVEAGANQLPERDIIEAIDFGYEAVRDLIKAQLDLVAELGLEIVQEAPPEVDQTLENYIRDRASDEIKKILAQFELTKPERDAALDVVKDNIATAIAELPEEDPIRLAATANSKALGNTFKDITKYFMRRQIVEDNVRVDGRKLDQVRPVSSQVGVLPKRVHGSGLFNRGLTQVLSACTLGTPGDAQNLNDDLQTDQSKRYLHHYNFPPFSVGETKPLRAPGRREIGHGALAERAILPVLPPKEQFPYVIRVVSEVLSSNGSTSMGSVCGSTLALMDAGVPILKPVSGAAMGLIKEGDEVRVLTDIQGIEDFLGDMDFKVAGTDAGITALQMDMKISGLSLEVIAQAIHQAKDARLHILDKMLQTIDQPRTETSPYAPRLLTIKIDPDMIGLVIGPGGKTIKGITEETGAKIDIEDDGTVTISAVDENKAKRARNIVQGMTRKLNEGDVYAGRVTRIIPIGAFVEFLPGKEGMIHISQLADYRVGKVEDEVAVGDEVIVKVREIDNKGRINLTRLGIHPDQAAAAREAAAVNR
# How the values were obtained:
# Assay in all cases: far-Western, overlay or dot blot
# [1] = target: T1, SynPnp, recombinant Synechocystis PNPase
# [2] = target: T1, SynPnp, recombinant Synechocystis PNPase; remark: listed apart in the source
# [3] = target: T2, AnaPnp, recombinant Anabaena PNPase
binder,measurement,setting,value
RRRRRRSSA [GFP-C4b (GFP fused at its C-terminus to the C4 nonapeptide)],binding result,[1],binds
RRRRRRSSA [synthetic nonapeptide of C4],binding result,[2],binds
STANRRRRRRSSASDSD [GFP-C4a (GFP fused at its C-terminus to C4 with four flanking residues at both ends)],binding result,[3],binds
